Laboratory results from patent EP4556018A1 (OSAKA UNIVERSITY, dated 2025).

Key:
[1] = biological target: T1, HDAC1 of mouse Treg cells (mouse, UniProt O09106 1-482); assay: immunoprecipitation of endogenous Foxp3 from Ikzf1-expressing mouse Treg cells, Simple Western
T1 construct: also called HDAC1 protein

[2] = biological target: T2, Flag-IkΔE5 (Mus musculus, UniProt Q03267 1-517, limits assumed); assay: co-immunoprecipitation with anti-Flag-M2 antibody from HEK293T lysate, Western blot with anti-c-Myc
T2 construct: Forcedly expressed in HEK293T cells; also called ΔE5 variant; Ikzf1ΔE5; not shown: Flag tag
T2 sequence (Q03267 other isoform, or with tags, fused parts or gaps mutant limits assumed): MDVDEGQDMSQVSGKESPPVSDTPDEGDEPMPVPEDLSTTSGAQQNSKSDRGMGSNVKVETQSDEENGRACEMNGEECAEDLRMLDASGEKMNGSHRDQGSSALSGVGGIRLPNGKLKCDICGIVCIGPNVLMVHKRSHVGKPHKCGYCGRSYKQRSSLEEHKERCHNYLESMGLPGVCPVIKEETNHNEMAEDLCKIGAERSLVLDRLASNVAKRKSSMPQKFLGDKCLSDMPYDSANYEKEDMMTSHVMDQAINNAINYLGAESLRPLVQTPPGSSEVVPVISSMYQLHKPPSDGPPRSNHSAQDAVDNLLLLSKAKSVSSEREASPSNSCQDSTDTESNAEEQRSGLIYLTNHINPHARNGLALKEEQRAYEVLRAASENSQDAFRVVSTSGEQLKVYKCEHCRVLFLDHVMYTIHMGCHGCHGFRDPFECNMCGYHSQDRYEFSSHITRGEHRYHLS

T1 sequence (O09106 whole entry): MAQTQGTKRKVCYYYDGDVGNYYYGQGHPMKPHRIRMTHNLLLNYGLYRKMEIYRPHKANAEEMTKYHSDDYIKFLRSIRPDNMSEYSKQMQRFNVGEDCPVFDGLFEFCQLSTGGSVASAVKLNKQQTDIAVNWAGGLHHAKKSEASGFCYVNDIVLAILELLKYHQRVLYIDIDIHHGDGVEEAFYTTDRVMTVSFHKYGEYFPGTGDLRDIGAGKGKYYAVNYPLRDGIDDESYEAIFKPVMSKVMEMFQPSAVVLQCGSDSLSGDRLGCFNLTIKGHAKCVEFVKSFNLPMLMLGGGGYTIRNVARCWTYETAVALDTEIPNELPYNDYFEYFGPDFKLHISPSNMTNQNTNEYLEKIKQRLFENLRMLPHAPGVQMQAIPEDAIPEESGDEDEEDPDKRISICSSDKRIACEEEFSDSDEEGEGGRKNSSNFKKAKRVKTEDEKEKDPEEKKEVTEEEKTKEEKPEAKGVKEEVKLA

B1: endogenous Foxp3 of mouse Treg cells (other, UniProt Q99JB6 1-429, looked up)
chain: MPNPRPAKPMAPSLALGPSPGVLPSWKTAPKGSELLGTRGSGGPFQGRDLRSGAHTSSSLNPLPPSQLQLPTVPLVMVAPSGARLGPSPHLQALLQDRPHFMHQLSTVDAHAQTPVLQVRPLDNPAMISLPPPSAATGVFSLKARPGLPPGINVASLEWVSREPALLCTFPRSGTPRKDSNLLAAPQGSYPLLANGVCKWPGCEKVFEEPEEFLKHCQADHLLDEKGKAQCLLQREVVQSLEQQLELEKEKLGAMQAHLAGKMALAKAPSVASMDKSSCCIVATSTQGSVLPAWSAPREAPDGGLFAVRRHLWGSHGNSSFPEFFHNMDYFKYHNMRPPFTYATLIRWAILEAPERQRTLNEIYHWFTRMFAYFRNHPATWKNAIRHNLSLHKCFVRVESEKGAVWTVDEFEFRKKRSQRPNKCSNPCP
notes: Immunoprecipitated with anti-Foxp3 antibody from Treg cell lysates
[1]
  binding result: binds

B2: Myc-Foxp3 (other, UniProt Q99JB6 1-429, looked up)
chain: MPNPRPAKPMAPSLALGPSPGVLPSWKTAPKGSELLGTRGSGGPFQGRDLRSGAHTSSSLNPLPPSQLQLPTVPLVMVAPSGARLGPSPHLQALLQDRPHFMHQLSTVDAHAQTPVLQVRPLDNPAMISLPPPSAATGVFSLKARPGLPPGINVASLEWVSREPALLCTFPRSGTPRKDSNLLAAPQGSYPLLANGVCKWPGCEKVFEEPEEFLKHCQADHLLDEKGKAQCLLQREVVQSLEQQLELEKEKLGAMQAHLAGKMALAKAPSVASMDKSSCCIVATSTQGSVLPAWSAPREAPDGGLFAVRRHLWGSHGNSSFPEFFHNMDYFKYHNMRPPFTYATLIRWAILEAPERQRTLNEIYHWFTRMFAYFRNHPATWKNAIRHNLSLHKCFVRVESEKGAVWTVDEFEFRKKRSQRPNKCSNPCP
notes: Forcedly expressed in HEK293T cells; not shown: Myc tag
[2]
  binding result: no binding
